This passage reports median enrichment results from the supplement of paper PMC11502859.
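Further: lentiviral eGFP-IRES-mCherry reporter pool sorted by FACS 96 h post-transduction, gated on mCherry-high cells, Illumina read counts normalized per million, median across four biological replicates.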

The subject of this series is HEK293T. Kind of series: median enrichment of reporter reads in eGFP-reduced (low/intermediate) vs eGFP-high sorted cells (eGFP-extension fusion abundance) (ratio); higher = stronger loss of eGFP-fusion protein abundance (more destabilising extension).
For the substance “LGHRQESVWAGLFNMVFAVLPPWGPWSDNIVSLVRLSRCLIRTANGASPTPPRVRPPFHQRVSSQRPPASCPAAQEEKEGLNS [PDGFB]”, the median enrichment came to 4.11.

As to LGKLPCRA [ZNF75D], the median enrichment came to 0.566.

As to LGLGRAHSAG [ATPAF2], the median enrichment turned out to be 10.

For “LGLLALTLQPTLAVWPSPGSFPAPLPLFPVLLNSPSWRVQALGMGGTRPHSFHRALRPDTADQPHSAQEAASGVGAQRGTAAS [BAP1]”, the median enrichment turned out to be 8.12.

“LGLLHLPPSYLVPCRAPGLFGGTLGCTSGLPAPAAWAPPS [REEP4]”: the median enrichment stood at 5.64.

For “LGLLPLGPLTLSGWWTTKYNPVYNLKIYFTFVLLYLFIKG [SMAD4]”, the median enrichment amounted to 5.85.

Consider LGLRVHTGWQEASKGS [SERPINH1], for which the median enrichment worked out at 4.89.

As for “LGNCWLAWHHHTATASHLLCQGGTSSAGACPVLCGRCCVLLNTAGPAITPWAWRSLGVSRCGGGQPGWPHSITGTACLGTRFP [PIGQ]”, the median enrichment turned out to be 5.81.

With LGP [COLQ], the median enrichment is 0.326.

For the substance “LGPVAGRPAPAPPPPTGVPAHSCGKGGEGRRARPEQGAGGRAQYLTRAAVLINVPMAGPRSEPASSATVTFSLRDGGGGSLSR [DUSP9]”, the median enrichment is 2.08.

With LGQAAPVLGEGG [DEPDC5], the median enrichment was determined as 1.71.

For LGRIMASFQNSFS [OR2AG1], the median enrichment was determined as 7.84.

As for “LGRLCPLPASLLCFPSPVSSLPSRPRHLPSVPWLSRTFYPTVRPQRGQDKPCPDAFDRQLCVLVDRCRNKEEMESAPEKLQIQ [H6PD]”, the median enrichment is 6.07.

LGRTSALSDRTLRAMLPCHP [MRGPRX3]: the median enrichment was found to be 7.42.

Take “LGSVPGWPVPITSYAHLPPPVFPPLDWWPLPWGRSPHVPAPGDRQRRQQAAFVAQQGALPSLLPSCFS [CST3]”: the median enrichment came to 4.44.

In the case of LGSVQGLSH [CST5], the median enrichment amounted to 0.51.

With LGSWRHWRGQEG [Degron KLHDC3], the median enrichment came to 8.96.

With LGTQASPSLTAEVRNKRWFRVPA [PSMC3], the median enrichment is 8.36.

As for “LGYRFWKHLSLGPKEVLLPFWASITQVVPVLTAEETSLPLFVLSPSFFNSV [MS4A8]”, the median enrichment was found to be 15.7.

With “LHGFQASGSLTISLLRVSPGNCLTKSQAQGLLSIYLISERLF [LIMCH1]”, the median enrichment was 33.9.

For LHGPCMLINASSEM [TMEM205], the median enrichment amounted to 5.79.

As to “LHSCTPISRAASLPSRGLQQCAWLAAAPPRAPWPRRCQPT [THSD4]”, the median enrichment turned out to be 7.14.

For LHSL [ZNF443], the median enrichment was 0.555.

Regarding “LHTELFIDTPHDCISRTHLLIILDPRETITSPSRQWRQIKISAEKEGHVEPQKHFYSG [SNTG1]”, the median enrichment stood at 9.

On to LHTQSPGVGHTAVISQS [ALLC], for which the median enrichment was 0.756.

With LHVKTFILVSTVFQ [SCGB1D2], the median enrichment came to 6.88.

With LIA [ACAT2], the median enrichment was 1.03.

For LIFFYQEG [PTEN], the median enrichment is 5.69.

As for LIFLI [MAP2], the median enrichment worked out at 6.91.

LIGCMEK [BTN3A1]: the median enrichment came to 11.1.

In the case of LIHGAEG [SLC16A1], the median enrichment came out at 1.29.

Consider “LIHSQGKLGNSEEKSLPSFWMNCMSSGLSTTM [RNF32]”, for which the median enrichment amounted to 10.

On to LIIMLKSALTFLR [MCF2L2], for which the median enrichment is 15.2.

LILKLHPQ [BZW1]: the median enrichment is 4.65.

In the case of “LILYPSAMATRRTNNCPPLEVRLIEALDPNKIRIRICNGPGAVPHACHPSTLGG [RBPMS]”, the median enrichment is 3.14.

For the substance LINARSHPMIILNYSHYF [LRRIQ3], the median enrichment was found to be 6.8.

Take LIPQPGLPVHLLTLLKSSIVVIL [CD46]: the median enrichment stood at 10.7.

On to “LIPVDPQGLAKARDTQREMLVIPLENLASNFLYV [KRT38]”, for which the median enrichment turned out to be 39.9.

“LIQHREVAACDLTHRFLCFLSHPGNLAFWFLPATLRLSSSAFQ [FHL2]”: the median enrichment was found to be 7.42.

Consider LISHSYLLKYI [ELAVL4], for which the median enrichment amounted to 7.49.

As to LISLSKSIKRESSLQK [SYNGR4], the median enrichment amounted to 8.85.

Consider LKDRFFKLT [RBBP6], for which the median enrichment was found to be 3.7.

Consider LKEIWEIL [ZNF418], for which the median enrichment worked out at 16.1.

With LKELIFNFSLQTGQH [TAF7], the median enrichment is 6.43.

Regarding LKG [SSBP1], the median enrichment came to 0.599.

LKH [HOXA2]: the median enrichment is 0.608.

For LKILVLLNYLI [TIPARP], the median enrichment turned out to be 10.8.

For the substance LKINC [FGG], the median enrichment worked out at 0.827.

Consider LKKKKG [TNFAIP6], for which the median enrichment is 3.07.

Take LKKKKKKALAFSCLFC [PCDH17]: the median enrichment was 25.4.

Turning to “LKKKKQQVMELHILVTQWTIIGSHWKSGKNPWRLSFSDILPNALLSRIFVSFCLIFWGVFVVVGLFFVFFF [PPP1R12A]”, the median enrichment is 5.8.

For the substance LKKNPRKNKS [NME5], the median enrichment was 1.1.

Consider LKLQLNRGSRKLLSLRGGV [MIP], for which the median enrichment is 14.1.

Take LKNCLEELY [EBF1]: the median enrichment amounted to 2.5.

With “LKNKSPLQNTPPSHSAPQLPTTARLSSFASVASPALHALAGTVAAAFSCSVMPSSCLKQKKIMHCVF [STXBP1]”, the median enrichment came to 6.42.

As to LKPERIVK [OR2A25], the median enrichment worked out at 0.737.

With LKPGC [KRTAP1-4], the median enrichment was determined as 0.613.

In the case of LKPPSAGDPDKMAP [KRTAP1-1], the median enrichment was found to be 0.285.

As for LKQPV [RIC3], the median enrichment is 1.01.

Regarding “LKSKLVVLQLCVTFSPSAVSVQHLFHKCFVFSNTVFTTLLACICMFYTKAYTVLCEAIRSRKGIVNNIKHFYTKIICFVIRF [SLC44A5]”, the median enrichment was determined as 2.32.

Take LKSP [SPATA5L1]: the median enrichment was 0.47.

As for “LKTPHPSLLECVWPFSSFSWQHQLGCFLCVWPQVSK [DUSP6]”, the median enrichment was 6.83.

For LKVLAGFT [DACH2], the median enrichment worked out at 4.2.

Take LKVSVNLQC [ZFR]: the median enrichment turned out to be 6.3.

For the substance “LKWAEPKFGVLHRAPFLHPWGGAQLGATLTMPRPHPVQHSQSSHLHPRTVGAGRHFPLEHVLRSITLGPTARLSLPPGSCMRS [SCARA5]”, the median enrichment came to 5.99.

For LLAG [QKI], the median enrichment amounted to 4.55.

Turning to LLAL [MS4A5], the median enrichment was 7.23.

For LLASIS [TENT2], the median enrichment is 5.22.

With LLC [OR10A3], the median enrichment is 3.73.

Consider “LLCKEYGIAKISLVANISGKVHIFILNSHSFEL [MYNN]”, for which the median enrichment was 4.26.

“LLECEISVGQTTRVCVCVLMESSLVVSSSFFLVTVLLNLIK [PET117]”: the median enrichment amounted to 9.64.

For LLEWIYDVPLRRSISATILI [HMGCLL1], the median enrichment came out at 20.6.

As for “LLGGPGRRVPPSPCQGPGDPLPGCLRLLLRRGNAKKEKEKPRARPLPPAVHCAASSVPGLTVPLSSAPARQGTCSQPWVDLFF [NRXN2]”, the median enrichment stood at 6.99.

As for LLHERMQRMQFPGCAVDFFQQV [CEP112], the median enrichment turned out to be 20.7.

For LLHMQKDSAIYLKID [APBB2], the median enrichment is 11.6.

As to LLK [HGF], the median enrichment came out at 1.66.

For the substance LLKTCSTTVLDTH [ATF2], the median enrichment stood at 8.11.

Consider LLL [Leu03], for which the median enrichment amounted to 4.12.

As for LLLEIRLLQLDV [CDC27], the median enrichment was determined as 10.6.

For LLLL [Leu04], the median enrichment stood at 9.42.

For LLLLL [Leu05], the median enrichment worked out at 4.74.

Consider LLLLLL [Leu06], for which the median enrichment was 6.86.

For the substance LLLLLLL [Leu07], the median enrichment worked out at 12.7.

For the substance LLLLLLLL [Leu08], the median enrichment amounted to 6.62.

LLLLLLLLL [Leu09]: the median enrichment is 11.2.

Regarding LLLLLLLLLL [Leu10], the median enrichment came to 14.7.

On to “LLLPADLWIRSLLTGCVTLGPELPLSGPQRPYEGPLLQEHPHDIAFGGAPVACRIACGLCNLLRFKTDGHMCQWGSLSPGPKK [JAK3]”, for which the median enrichment was 5.04.

Take “LLLPGGEQPTRCRFALRGASYIGTLLSLQNDDTNANDQM [TFB1M]”: the median enrichment amounted to 5.57.

Regarding LLLPLGFTSQTQPLEQPDPAE [CHAT], the median enrichment came to 6.49.

Regarding LLLPRSWATP [CEP72], the median enrichment was 4.2.

As to LLMMFQKPK [TGIF2LX], the median enrichment was 8.04.

With LLQGSKLQR [OR7A5], the median enrichment is 10.4.

Consider LLRDPAPPL [AHSP], for which the median enrichment was 4.96.

Regarding LLRG [ARPP19], the median enrichment is 4.64.

Regarding LLRPGALGARP [APOBR], the median enrichment worked out at 9.86.

As for LLRPHVKPPCPSTLPIALQRSSSWMTQI [RESP18], the median enrichment came out at 7.12.

With LLSITKVYSKIIF [HNMT], the median enrichment was 7.95.

For LLTLS [BBS5], the median enrichment was determined as 10.2.

On to LLTVFHKEDV [ATP2A2], for which the median enrichment came to 10.9.

LLYSILWSSSSVARPLILSFAHVHPN [KCNK17]: the median enrichment turned out to be 25.2.

In the case of LMDHG [GLUD2], the median enrichment was determined as 1.6.

Turning to “LMGCSLLLSFLGLLCFAVLENHKERNSYGEVRKTEKDSCVKLFFACKLLHFKRPPLFLQRTFFAQLWTLSMVP [DLX5]”, the median enrichment was 11.5.

As to LMLPGIK [CDV3], the median enrichment is 4.97.

As to “LMPSTAADLWLDLGKGSIVLGKSTRSCKLGIHS [AGBL4]”, the median enrichment was 8.11.

Regarding “LMSMSEGKENFGHQNPAPSELKELIYFMKLILLCVCSWC [GALNT15]”, the median enrichment came out at 12.1.

In the case of “LNAFLASSAGGLSLGRGDSTHHWNFADRKRFLFSVL [KMT2C]”, the median enrichment amounted to 16.9.

Take LNCSQLEML [DNAJC24]: the median enrichment is 0.695.

In the case of LNE [ZCCHC2], the median enrichment turned out to be 0.346.

As for LNFHTEF [TP53BP2], the median enrichment was found to be 0.758.

With LNFNKTFKITEIFKI [LIAS], the median enrichment turned out to be 9.41.

Turning to “LNFQQRPSKDILQDSVIVNIWKVLEIFIVCKYCKCIGIKLSPPLLYETAHWSL [PTHLH]”, the median enrichment is 0.919.

For the substance LNGSHSVTQAGVKWPNHSSLQPQPGRFR [COX17], the median enrichment is 8.21.
